Test results as given in publication PMC6774794 (Nature structural & molecular biology, 2019).
Blank lines part the entries; values can stand above or below the molecule they belong to.

Experiments:
[1] = biological target: dynein light chain LC8 (DYNLL1/2) (human) (UniProt P63167); test: cryo-EM structure
[2] = biological target: T1, dynein-2 intermediate chain WDR60 (human, UniProt Q8WVS4); test: cryo-EM structure
T1 sequence: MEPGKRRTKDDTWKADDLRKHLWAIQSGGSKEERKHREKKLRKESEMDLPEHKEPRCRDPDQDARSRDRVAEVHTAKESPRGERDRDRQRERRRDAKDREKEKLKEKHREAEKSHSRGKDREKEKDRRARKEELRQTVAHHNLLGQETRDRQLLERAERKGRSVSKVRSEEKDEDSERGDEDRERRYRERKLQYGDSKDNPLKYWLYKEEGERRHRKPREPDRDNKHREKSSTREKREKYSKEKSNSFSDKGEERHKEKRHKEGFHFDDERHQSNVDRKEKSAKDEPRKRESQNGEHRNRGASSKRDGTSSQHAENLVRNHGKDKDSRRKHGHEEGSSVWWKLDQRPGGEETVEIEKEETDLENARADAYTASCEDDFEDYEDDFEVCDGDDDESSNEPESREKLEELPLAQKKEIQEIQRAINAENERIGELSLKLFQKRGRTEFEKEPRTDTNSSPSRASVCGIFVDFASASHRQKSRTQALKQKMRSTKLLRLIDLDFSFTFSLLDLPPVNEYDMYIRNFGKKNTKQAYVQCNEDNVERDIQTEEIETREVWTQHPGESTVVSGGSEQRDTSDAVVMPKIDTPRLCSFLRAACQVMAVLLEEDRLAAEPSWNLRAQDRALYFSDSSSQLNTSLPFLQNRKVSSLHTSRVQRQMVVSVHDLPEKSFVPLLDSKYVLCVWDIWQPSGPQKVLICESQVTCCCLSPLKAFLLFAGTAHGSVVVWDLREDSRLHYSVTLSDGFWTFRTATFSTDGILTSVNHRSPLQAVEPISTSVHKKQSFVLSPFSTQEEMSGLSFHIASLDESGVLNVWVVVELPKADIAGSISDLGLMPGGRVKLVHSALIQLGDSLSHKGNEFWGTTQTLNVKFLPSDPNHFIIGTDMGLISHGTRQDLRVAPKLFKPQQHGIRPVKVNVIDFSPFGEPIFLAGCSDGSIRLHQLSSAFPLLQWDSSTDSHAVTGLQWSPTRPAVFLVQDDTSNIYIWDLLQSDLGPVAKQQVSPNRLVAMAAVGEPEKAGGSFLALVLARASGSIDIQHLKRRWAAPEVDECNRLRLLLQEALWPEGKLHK

- stoichiometry N [1]: 2
Molecule: dynein light chain LC8 (DYNLL1/2) (from UniProt P63167) (natural protein)

- binding result [2]: binds
B1: dynein-2 intermediate chain WDR34 (natural protein)
chain: MATRAQPGPLSQAGSAGVAALATVGVASGPGPGRPGPLQDETLGVASVPSQWRAVQGIRWETKSCQTASIATASASAQARNHVDAQVQTEAPVPVSVQPPSQYDIPRLAAFLRRVEAMVIRELNKNWQSHAFDGFEVNWTEQQQMVSCLYTLGYPPAQAQGLHVTSISWNSTGSVVACAYGRLDHGDWSTLKSFVCAWNLDRRDLRPQQPSAVVEVPSAVLCLAFHPTQPSHVAGGLYSGEVLVWDLSRLEDPLLWRTGLTDDTHTDPVSQVVWLPEPGHSHRFQVLSVATDGKVLLWQGIGVGQLQLTEGFALVMQQLPRSTKLKKHPRGETEVGATAVAFSSFDPRLFILGTEGGFPLKCSLAAGEAALTRMPSSVPLRAPAQFTFSPHGGPIYSVSCSPFHRNLFLSAGTDGHVHLYSMLQAPPLTSLQLSLKYLFAVRWSPVRPLVFAAASGKGDVQLFDLQKSSQKPTVLIKQTQDESPVYCLEFNSQQTQLLAAGDAQGTVKVWQLSTEFTEQGPREAEDLDCLAAEVAA
